Legend:
cathepsin B = conditions: room temperature, up to 96 hours
[1] = test system: HPAC tumor-bearing SCID mice; conditions: mouse, in vivo

Row | cleaved bond (cathepsin B) | Substance | increase of tumor accumulation from 24 h to 72 h post-injection [1] [%] | lower liver retention compared to control (177Lu-MAC0) [1] [fold]
1 | G-G, 24 h | DO3A(tBu)3-G- (D)S(tBu)-(D)S(tBu)-G- G-G-F | – | –
2 | – | X = GSS, Y = PMGLP [177Lu-MAC2] | 113 | 2.1
